B1: CPEB3 Ribozyme (parent)
chain: UAACAGGGGGCCACAGCAGAAGCGUUCACGUCGCAGCCCCUGUCAGAUUCUGGUGAAUCUGCGAAUUCUGCUGUAUAUCUC

In the series the parent is B1. Put plainly: self-cleavage, relative activity (ratio to wild type); higher = more cleavage; in vitro, sequencing. The essentials: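 Relative activity was defined as the cleaved/total read fraction for a variant divided by the same fraction for the unmutated ribozyme. CPEB3 self-cleaving ribozyme libraries were made by rounds of error-prone PCR, barcoded, and transcribed in vitro with T7 RNA polymerase for 5 hours at 37°C, and cleavage ran through transcription plus a 15 min DNase I step before EDTA. Illumina sequencing of template-switched reverse transcripts gave the reads, and DNA sequencing mapped the barcodes. Averages come from three batches, using variants with at least 5 reads.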
Consider G9A C27A, for which the self-cleavage is 0.04.
Under G8U A45G stands 0.14.
On to G8A G55A, for which the self-cleavage came to 0.06.
With G9A C40U the figure was 0.08; with G8C G55A, 0.37.
With G8U U66G the figure was 0.13; with G8A U41A, 0.07.
With G8A U41C the figure was 0.32.
With G8A G52A, the self-cleavage was determined as 0.3.
Under G8U C71G stands 0.07; under G8U A64C, 0.12; under G8U A64G, 0.2.
As to G8U A64U, the self-cleavage is 0.08.
With G8A U48A the figure was 0.27; with G8A U48C, 0.15.
For the variant G8A U48G, the self-cleavage was found to be 0.37.
Turning to G9A U54A, the self-cleavage was 0.13.
Take G9A U54C: the self-cleavage was determined as 0.33.
Consider G9A A35U, for which the self-cleavage came to 0.18.
For G9A A35G, the self-cleavage was 0.66.
With G9A G30U the figure was 0.06; with G9A G30A, 0.18; with G9A C17U, 0.23.
Under G9A C17G stands 0.1; under G8U A15U, 0.4; under G8U A15G, 0.24.
Under G8C U26C stands 0.08; under G9A U51A, 0.27.
Turning to G9A U51C, the self-cleavage was 0.37.
Take G9A A15G: the self-cleavage is 0.3.
For the variant G9A A15U, the self-cleavage came out at 0.15.
With G9A G33A the figure was 0.08; with G9A G10A, 0.45; with G9A G10C, 0.2.
With G9C C34A, the self-cleavage was found to be 0.14.
Regarding G9A U60C, the self-cleavage amounted to 0.14.
With G9A U60A, the self-cleavage came to 0.22.
Turning to G8U C12U, the self-cleavage came out at 0.3.
For G8A U80A, the self-cleavage is 0.29.
Under G8A U80C stands 0.19; under G9A A65U, 0.17.
Under G9A A65G stands 0.22.
Under G9C C79A stands 0.58; under G8A C71U, 0.21; under G8A C71A, 0.17.
In the case of G9C A35G, the self-cleavage is 0.27.
Under G9C A57U stands 0.24; under G9A G52C, 0.13; under G9A G52A, 0.24.
With G8A G73A the figure was 0.18.
Under G8U G24A stands 0.16; under G8U G24U, 0.13; under G9C U43C, 0.13.
Turning to G8U G36A, the self-cleavage is 0.1.
For the variant G8U A13U, the self-cleavage was 0.3.
With G8U A13G the figure was 0.28; with G8C C23A, 0.3; with G9C U41C, 0.15.
With G9A G73A the figure was 0.47.
In the case of G9C U60C, the self-cleavage was 0.25.
Consider G9C U60A, for which the self-cleavage was 0.15.
With G8C U80G the figure was 0.24; with G8U A65G, 0.34.
Take G8U A65U: the self-cleavage was 0.43.
Under G8U A18G stands 0.14.
Turning to G8U A18U, the self-cleavage came to 0.16.
On to G8A G30U, for which the self-cleavage turned out to be 0.16.
With G8A G30A, the self-cleavage was found to be 0.4.
On to G8U C38U, for which the self-cleavage was found to be 0.04.
For G8C A15C, the self-cleavage is 0.29.
Consider G8U U49C, for which the self-cleavage was 0.22.
Consider G8U U49A, for which the self-cleavage amounted to 0.28.
In the case of G8U A35U, the self-cleavage worked out at 0.27.
With G8U G33U the figure was 0.1; with G8U G33A, 0.08.
With G8A U25C the figure was 0.26.
In the case of G8A U25A, the self-cleavage amounted to 0.05.
With G8A U72C the figure was 0.26.
G8A U72G: the self-cleavage was 0.12.
On to G8A U72A, for which the self-cleavage came out at 0.07.
For G8A G42A, the self-cleavage stood at 0.1.
For the variant G8C U60C, the self-cleavage came out at 0.24.
In the case of G8C U60A, the self-cleavage stood at 0.14.
With G8U the figure was 0.23.
On to G8C, for which the self-cleavage came out at 0.27.
Under G8A C68A stands 0.2; under G8C A13U, 0.16; under G8A U54A, 0.08.
Under G8A U54C stands 0.14; under G9C A45C, 0.25.
For the variant G9C A45U, the self-cleavage amounted to 0.13.
For G9C U58G, the self-cleavage was found to be 0.06.
With G9A C68U the figure was 0.27.
With G8U U76C the figure was 0.13.
Under G8U U76A stands 0.28; under G8C U43C, 0.4; under G8U A28G, 0.14.
Consider G8U A28U, for which the self-cleavage stood at 0.09.
With G8U A77U the figure was 0.14; with G8U G9A, 0.33.
With G9A A45U the figure was 0.21; with G9A A45G, 0.39; with G8U A47G, 0.13.
Under G8U C79U stands 0.04; under G9C A21U, 0.23.
Turning to G8U U80A, the self-cleavage turned out to be 0.2.
G8U U80G: the self-cleavage came to 0.2.
With G8U U80C the figure was 0.16; with G8U U41G, 0.39; with G8U U41C, 0.12.
Take G8U U41A: the self-cleavage was determined as 0.19.
With G8U G46U the figure was 0.19.
Under G8U C32U stands 0.14.
With G9C U25C, the self-cleavage amounted to 0.07.
Under G8U U74A stands 0.41; under G8U U74G, 0.17; under G9A U67A, 0.11.
Under G9A U67C stands 0.08.
In the case of G8U C59U, the self-cleavage stood at 0.1.
Regarding G8U U48C, the self-cleavage worked out at 0.38.
With G9A G53A the figure was 0.35; with G8C U66C, 0.41.
Under G8C U69C stands 0.22; under G8A G70A, 0.05; under G9A G46A, 0.13.
With G8C C40U the figure was 0.13.
With G8U U54A, the self-cleavage stood at 0.07.
Under G8U U54C stands 0.14.
Turning to G8U G10A, the self-cleavage came out at 0.39.
Turning to G8U C14U, the self-cleavage came out at 0.06.
Under G8A U51C stands 0.21.
Consider G8A U51A, for which the self-cleavage is 0.24.
Under G8A U51G stands 0.09; under G9A U69C, 0.1.
As for G9A U69G, the self-cleavage is 0.2.
As for G9A U69A, the self-cleavage amounted to 0.21.
Under G9C A47G stands 0.21; under G8A U26A, 0.19; under G8A U26C, 0.13.
For the variant G8C A64U, the self-cleavage was 0.22.
With G8U A56U the figure was 0.14.
As for G8C U31G, the self-cleavage worked out at 0.34.
G8C U31C: the self-cleavage amounted to 0.38.
Under G8A U69G stands 0.28; under G8A U69A, 0.28; under G8A U69C, 0.19.
In the case of G9C A28G, the self-cleavage was 0.07.
Regarding G9A U66C, the self-cleavage worked out at 0.24.
With G9A U66A the figure was 0.11; with G9C U67C, 0.11.
Turning to G8C G52A, the self-cleavage was determined as 0.31.
With G9C A15G the figure was 0.39; with G9C A15C, 0.34.
Take G9C A15U: the self-cleavage worked out at 0.1.
Under G8C U54C stands 0.44; under G9A A28C, 0.2; under G9A A28U, 0.22.
As to G9A A28G, the self-cleavage was 0.24.
Under G9A U43G stands 0.22; under G9A U43A, 0.39; under G9A U43C, 0.29.
In the case of G9C U51A, the self-cleavage is 0.09.
With G9C G52A the figure was 0.55; with G9A A20C, 0.39.
Consider G9A A20U, for which the self-cleavage was 0.43.
Under G9A A20G stands 0.37; under G8U C62U, 0.12.

The record behind these values is the RNAGym collection of RNA variant scans (doi:10.1093/nar/gkz1192).
